{
  "source": "patent US6245545",
  "test_system": "SwaI restriction endonuclease (native) (Staphylococcus warneri)",
  "assay": "cleavage_in_vitro",
  "settings": "more than 544,000 units in Source-15S fractions 17-19; restriction activity assayed on M13mp19 RF DNA",
  "data": [
    {"substance": "M13mp19 RF DNA", "values": [
      {"measurement": "activity", "result": 544000, "unit": "units"}
    ]}
  ]
}
